Measured values: the nanobody polyreactivity screen of Harvey et al. (2022)

Assay: yeast display, Sf9 membrane polyspecificity reagent, FACS + sequencing; frameworks hold sequencing errors
Summary of the method: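 Using colony PCR, genes from sorted yeast display clones were amplified, then sequenced on MiSeq at 2 × 250 and filtered by CDR length. The clones had been stained with 10% biotinylated, detergent-solubilized Sf9 membrane reagent for 1 hour at 4 °C and sorted by FACS into low and high (top ~1%) gates on anti-HA and streptavidin fluorescence. Polyreactivity labels come from the gate of origin.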

| Sequence | polyreactivity (PSR sort gate) |
| --- | --- |
| QVQLVESGGGIVQAGGSLRLSCAASGSNFTAYDMGWYRPAPGKDRELVAALNVSAGTTYYADSVKGRFTISRDHAKNTVYLQMNSLKPEDTAVYYCATYRSPTPYTRENIYAYWGQGTLVTVSS | low polyreactivity |
| QDQLVESGGGLVQAGGSLRLSCAASGYIFRYYAMGWYRQAPGKERELVAAISWNGGRTYYADSVKGRFTISRDNAKNTVYLQMNSLKPEDTAVYYCNTYWDGAREYDYWGQGTQVTVSS | high polyreactivity |
| QVQLVESGGGLVQAGGSLRLTCAASGRTFHGNAMGWYRPAPGKERELVAAISYSGGRTYYADSVKGRFTISRDNAKNTVYLQMNSLKPEDTAVYYCAAWGSSYSFDYWGQGTQVTVSS | high polyreactivity |
| QVQLVESGGGLVQAGGSLRLSCAASGRIIPRNAMGWYRQAPGKEMELVAGISRGGSTYYADSVKGRFTISRDNAKNTVYLQMNSLKTEDTAVYYCAAAYQKSPITPKMDYWGQGTQVTVSS | low polyreactivity |
| QVQLVESGGGLVQAGGSLRLSCAASGRTFTYYAMGWSRQAPGKERECVSAISSTGTSTYYADSVKGRFTISRDNAKNTVYLQMNSLKPEDTAVYYCNARVATYRLHSKFYYWGQGTQVTVSS | high polyreactivity |
| QVQLVESGGGLVQAGGSLRLSCAASGRTFGLYAMRWYRQAPGKERELVAAISIRGGATYYAVSVKGRFTISRDNAKNTVYLQMNSLKPEDSAVYYCNKGPGRWYYWGQVTQVTVSS | low polyreactivity |
| QVQLVESGGGLVQAGGSLRLSCAASGRIFFVYAMGWYRQAPGKERELVAAITSSGGGTYYADSVKGRFTISRDNAKNTVYLQMNSLKPEDTAVYYCATRYPYRPGYEYWGQGTQVTVSS | low polyreactivity |
| QVQLVESGGGLDQAGGSLRLRCAASGSTFLINAMGWYRQAPGKESELVAAISSSSGNTYYADSVKWRFTISRDNAKNTVYLQMNSLKPEDTAVYYCKAVFTRGVTQYDHYYWGQGTQVTVSS | high polyreactivity |
| QVQLEESAGGLVQAGGSLSLICAASGTIVSYAMGWYRQAPGKQRELVAAISRSGGSTYYADSVKGRFTIARDNEKNTVYLQMNSLKPEDTAVYYCAARWRYLTLYAGFNYWGQGTQVTVSS | high polyreactivity |
| QVQLVESGVGLVQAGGSLRLSCAASGSTFSYYAMGWYRQAPGKERELVAAITRSGGRTYYADSVKGRFTISRDNAKNTVYLQMNSLKPEDTAVYYCAALSVGTRRDYWGQGTQVTVSS | low polyreactivity |
| QVQLVESGGGLVQAGGSLRLSCAASGFIIDSYAMGWYRQAPGKERELVATITKGGGRTYYADSVKGRFTISRDNAKNTVYLQMNSLKPEDTAVYYCNARGFSRRKGLDYWGQGTQVTVSS | low polyreactivity |
| QVQLVESGGGLVQAGGSLRLSCAASGFIFYYAMGWYRQAPGKERELVAGITESDGSTNYADSVKGRFTISRDNAKNTVYLQMNSLKTEVTAVYYCAKDASSLRFDYWGQGTQVTVSS | low polyreactivity |
| QVQLVESGGGLVQAGGSLRLSCAASGSTFYGNDMGWYRQAPGKERELVAAISSGGSTNYADSVKGRFTISRDNAKNTVYLQMNSLKPEDTAVYYCAADDTPDTMYGSDYWGQGTQVTVSS | low polyreactivity |
| QVQLVESGGGLVQAGGSLRLSCAASGRTFRGYVMGWYRQAPGKERELVAAISKSGGSTYYADSVKGRFTISRDIAKNTVYLQMNSLKPEDTAVYYCNALPRTQYDYWGQGTQVTVSS | low polyreactivity |
| QVQLVESGGGLVQAGGSLRLSCAASGSIFGDNAMGWYRKAPGKERELVAGISSSGGRTYYADSVKGRFTISRDNAKNTVYLQMNSLKPEVTAVYYCAKEPGWGRRSTTAYDYCGQGTQVTVSS | low polyreactivity |
| QDQLVESGGGLVQAGASLRLSCAASGSIFYHNTMGWYRQAPGKERELLTYYADSVKRRFTISRDNAKNTVYLQMNSLKPEDTAVYYCAASPVSRTGPGDYDYWGQGTQVTVSS | low polyreactivity |
| QVQLVESGGGLVQAGGSLRLSCAASGFTFYYNAMGWYRQAPGKERELVAAISASGGRTYYADSVKGRFTISRDNAKNTVYLQINSLKPEDTAVYYCAYRVYPHYGWYDYWGQGTQVTVSS | high polyreactivity |
| QVQLVESGGGLVQAGGSLRLSCAASGSIFSSNAMGWYRQAPGKERELVAAITVSGGSTYYADSVKGRFTISRDNAKNTVYLQMNSLKPEDTAVYDCAVPVTYYFDGSWWRYDYWGQGTQVTVSS | high polyreactivity |
| QVQLVESGGGLVQAGGSLRLSCAASGRTFKIYAMGWYRQAPGKERELVAAITWNGDSTHYADSVKGRFTISRDNAKNTVYLQMNSLKPEDTAVYYCNRVGYQSMNYWGQGTQVTVSS | low polyreactivity |
| QVQLVESGGGLVQAGGSLRLSCAASGFTFSFYAMGWYRQAPGKERELVAGISKRGGSTYYADSVKGRFTISRDNAKNTVYLQMNSLKPEDTAVYYCAKRSSLYRSLVDYWGQGTQVTVSS | high polyreactivity |
| QVQLVESVGGLVQAGGSLRLSCAASGITFNEYAMGWYRQATGKARELVAAISRRGGSTYYADSVKGRFTISRDNAKNTVYLQMYSLKPEDTAVYYCAADPGTPRYQFLWYGYWGQGTQVTVSS | low polyreactivity |
| QVQLVESGGGLVQAGGSLRLSCAASGRTLPPNDMGWYRQAPGKERELVAAITRSGGRTYYADSVKGRFTISRDNAKNTVYLQMNSLKPEDTAVYYCATYNPPYSDYSRYNYWGQGTQVTVSS | high polyreactivity |

| Sequence | polyreactivity (PSR sort gate) |
| --- | --- |
| QVQLVESGGGLVQAGGSLRLSCAASGITFYRYAMGWYREAPGKERELVAAISRSGGGTHYADTVKGRFTISRDNAMNTVYLQMYCLKPEDTAVFYCAASAYSYDYWGQGNQVTVSS | high polyreactivity |
| QVQLVESGGGLVQAGGSLLLSCAAARIIFKYNAMGWYRQAPGKDRELVARITARGGRTNYADSVKGRFTISRDNAKHTVYLQMNSLKPEDTAVYYCAKKLRGWHTIITDYDYWGQGTQVTVSS | low polyreactivity |
| QVQLVESGGGLVQAGGSLRLSCAASGRTIYQYAKGWYRPAPGKERELVAAISRGGSTNYADSLKGRFTISRDNAKNTVLLQLNSLKPEDTAVYDCASWYKCLSLKRLYERDYWGHGTQVTVSS | high polyreactivity |
| QVQLVESGGGLVQAGGSLRLSCAASGSTFDYYAMGWYRQAPGKERELVAAISSTDGSTFYADSVKGRFTISRDNAKNTVYLQMNSLKPEDTAVYYCAVVGYYYPWPNGYDYWGQGTQVTVSS | low polyreactivity |
| QVQLVESGGGLVQAGGSLRLSCAASGFIFNYYDMGWYRQAPGKERELVAAITYSVGSTYYADSVKGRFTISRDNAKNTVYLQMNSLKPEDTAVYYCNKDFLYGIYSYDYWGQGTQVTVSS | high polyreactivity |
| QVQLVESGGGLVQAGGSLRLSCAASGITFVDYDMGWYRQAPGKERELVAAITTGSSTYYADSVKGRFTISRDNAKNTVYLQMNSLKPEDTAVYYCARVFEYDYYQQWSYGYWGQGTQVTVSS | low polyreactivity |
| QVQLVESGGGLVQAGGSRRISWAASGSTFPWNVMGWYRQAPGKERELVAAISSSDGRTYYADSVKGRFTISRDNAKNTVYLQMNSLNPDDTAVDYCAASVAYYWYRTWLFDYDYWGQGTEVTVSS | high polyreactivity |
| QVQLVESGGGLVQAGGSLRLSCAASGYTFTRYAMGWYRQAPGKEREFVAAITSGGGSTYYADSVKGRFTISRDNAKNTVYLQMNSLKPEDTAVYYCAADLTSLWYTVQLELDFWGQGTQVTVSS | low polyreactivity |
| QDQLVESGGGLVQAGGSLRLSCAASGSIFFLYAMGWYRQAPGKERELVAAIRLSGGSTYYADSVKGRFTISRDNAKNTVYLQMNSLKPEDTAVYYCAAESAAASAVYSVEYDYWGQGTQVTVSS | low polyreactivity |
| QVQLVESGGGLDQAGGSLRLSSAASGRIFSKSAMGLYRQAPGKETELVAAMTSGGRTYYADSVKGRFTISRDIAKNTVYLQMNSLKPEDTAVYYCAARYVQVVRKFGYWVQGTQVTVSS | high polyreactivity |
| QVQLVESGGRLVQAGGSLRLSCAAYGSTFQGYAMGWYRQAPGKERELVADISWSGGSTYYADSVKGRFTISRDNAKNTVYLQMNSLKPEDTAVYYCNAVGYLDFEWGQGTQVTVSS | low polyreactivity |
| QVQLVESAGGLVQAGGSLRLTCAASGNIFRRYAMGWYRQAPGKERELVAAISWRSGNTYYADSVKGRFTISRDNAKNTVYLQMNSLKPEDTAVYYCNKDYWWIPQLPHYNYWGQGTQVTVSS | low polyreactivity |
| QVQLVESGGGLVQAGGSLRLSCAASGSTFVPYTMGWYRQAPGKERELVAAMSGSGGTDYADSVKGRFTISRDNAKNTVYLQMNSLKPEDTAVYYCATDGLDFWFIYDYWGQGTQVTVSS | low polyreactivity |
| QVQHVESGGGLVQAGGSLRLSCAASGFMFYSYAMGWYRQPPGKEREFVAAITEDGDSSYYADSVKGRFTISRDNAKKTVYLQMNSLKPEDTAVYYCNTDLTFNGTSGDYDYWGQGTQVTVSS | low polyreactivity |
| QVQLVESGGGLVLAGGSLRLSCAASGRTFGVYAMGWYRQAPGKERELVADITYRDGSTYYADSVKGRFTISRDNAKNTVYLQMHSLKPEDTAVYYCAAAESTWFDWVWMDYWGQGTQVTVSS | high polyreactivity |
| QVQLVESGGGLVQAGGSLRLSCAASGRTFIGNAMGWYRQAPGKERELVAGIDSDGSTNYADSVKGRFTISRDNAKNTVYLLMNSLKPEDTAVYYCAAVQGYRFYEYYYWGQGTQVTVSW | low polyreactivity |
| QVQLVESGGGLVQAGGSLRLSCAASGFTFEYYAMGWYRQAPWKERELVATITWNGGSTYYADSVKGRFTISRDNAKNTVYFQMNSLKPEDTAVYYCAADEQAYYVRRFDYWGQGTQVTVSS | low polyreactivity |
| QVQLVESGGGLVQAGGSLRLSCAASGSTFAIYAMGWYRKSPGKERELVASISGGSTNYADSVKGRFTISRDNAKNTVYLQMNSLKPEDTSVYYCAARGALHHWYRFDYWGQGTQVTLSS | low polyreactivity |
| QVQLVESGGGLVQAGGSLRLSCDASGSIFVLNAMGWYRQAPGKERELVAAISYSGGSTYYADSVKGRFTISRDNAKNTVYLQMNSLKPEDTAVYYCAADLVSYYGYSSEYEYWGQGTQVTVSS | high polyreactivity |
| QVQLVESGGGLVQAGGSLRLSCAASGSIFNYYDMGWYRQAPGKERELVAAIDLTGGTTYYADSVKGRFTISRDNAKNTVYLQMNSLKPEDTAVYYCAAQYIRSSWWGYDYWGQGTQVTVSS | low polyreactivity |
| QVQLVESGGGLVQAGGSLRLSCAASGSISSGYTMGWYRQAPGKERELVASIRSGGSTYYADSVKGRFTISRDNAKNTVYLQMNSLKPEDTAVYYCAARFFYRYSWGRTRGYDYWGQGTQVTVSS | high polyreactivity |
